Laboratory results taken from US20220064254A1 (Janssen / Centocor, published 2022).

B1: CAR19 (KL2B359_HL) (other)
chain: QVQLQESGPGLVKPSQTLSLTCTVSGNSITSDYAWNWIRQFPGKRLEWIGYISYSGSTTYNPSLKSRVTISRDTSKNQFSLKLSSVTAADTAVYYCATGYYYGSGFWGQGTLVTVSSGGSEGKSSGSGSESKSTGGSEIVLTQSPATLSLSPGERATLSCRASESVEYFGTSLMHWYQQKPGQPPRLLIYAASNVESGIPARFSGSGSGTDFTLTISSVEPEDFAVYFCQQTRKVPYTFGGGTKVEIKTSTPAPRPPTPAPTIASQPLSLRPEACRPAAGGAVHTRGLDFACDIYIWAPLAGTCGVLLLSLVITLYCKRGRKKLLYIFKQPFMRPVQTTQEEDGCSCRFPEEEEGGCELRVKFSRSADAPAYKQGQNQLYNELNLGRREEYDVLDKRRGRDPEMGGKPRRKNPQEGLYNELQKDKMAEAYSEIGMKGERRRGKGHDGLYQGLSTATKDTYDALHMQALPPR
notes: also called KL2B359 HL CAR; rehumanized 11B6 HL CAR
B2: CAR20 (KL2B359_LH) (other)
chain: EIVLTQSPATLSLSPGERATLSCRASESVEYFGTSLMHWYQQKPGQPPRLLIYAASNVESGIPARFSGSGSGTDFTLTISSVEPEDFAVYFCQQTRKVPYTFGGGTKVEIKGGSEGKSSGSGSESKSTGGSQVQLQESGPGLVKPSQTLSLTCTVSGNSITSDYAWNWIRQFPGKRLEWIGYISYSGSTTYNPSLKSRVTISRDTSKNQFSLKLSSVTAADTAVYYCATGYYYGSGFWGQGTLVTVSSTSTPAPRPPTPAPTIASQPLSLRPEACRPAAGGAVHTRGLDFACDIYIWAPLAGTCGVLLLSLVITLYCKRGRKKLLYIFKQPFMRPVQTTQEEDGCSCRFPEEEEGGCELRVKFSRSADAPAYKQGQNQLYNELNLGRREEYDVLDKRRGRDPEMGGKPRRKNPQEGLYNELQKDKMAEAYSEIGMKGERRRGKGHDGLYQGLSTATKDTYDALHMQALPPR
notes: also called KL2B359 LH CAR; rehumanized 11B6 LH CAR

Key:
[1] = target: hK2 on target cells (VCaP, LNCaP/hK2, LNCaP, C4-2B) (human, UniProt P20151 19-261); assay: cell-based or functional assay
[2] = target: T1, biotinylated recombinant hK2 protein (human, UniProt P20151 25-261, biotin label (EZ-Link Sulfo-NHS-LC-Biotin)); assay: flow cytometry; CAR-transduced JNL cells stained with biotinylated hK2 and streptavidin-PE
T1 construct: In-house biotin-labelled recombinant hK2 used as the flow cytometry reagent; also called biotinylated hK2; Biotin-Hk2 protein

[3] = target: T1, biotinylated recombinant hK2 protein; assay: flow cytometry; primary human T cells lentivirally transduced with the CAR (MOI 3), day 14, stained with biotinylated hK2 (1 ug/ml) then streptavidin-PE; UTD control gate 0.065

T1 sequence (P20151 25-261): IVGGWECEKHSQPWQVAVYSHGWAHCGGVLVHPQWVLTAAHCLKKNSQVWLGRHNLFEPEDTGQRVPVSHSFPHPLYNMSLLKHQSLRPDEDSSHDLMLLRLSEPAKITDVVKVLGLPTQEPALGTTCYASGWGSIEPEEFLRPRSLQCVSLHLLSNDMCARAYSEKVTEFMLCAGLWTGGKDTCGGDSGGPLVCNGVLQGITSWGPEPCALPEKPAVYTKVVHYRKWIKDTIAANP
Sequence of hK2 on target cells (VCaP, LNCaP/hK2, LNCaP, C4-2B) (P20151 19-261): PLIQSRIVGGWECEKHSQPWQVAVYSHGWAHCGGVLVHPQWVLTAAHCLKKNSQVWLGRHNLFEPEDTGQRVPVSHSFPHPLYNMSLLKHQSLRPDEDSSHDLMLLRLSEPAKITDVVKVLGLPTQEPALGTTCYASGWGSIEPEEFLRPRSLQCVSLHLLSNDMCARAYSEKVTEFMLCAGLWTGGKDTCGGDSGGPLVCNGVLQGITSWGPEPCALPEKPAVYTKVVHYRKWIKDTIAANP

Row | Binder | tumor cell growth inhibition (TGI, %) of hK2 positive VCaP cells, real-time IncuCyte killing assay, 96 hours [1] [%] | % of JNL cells stained with biotinylated hK2 (reported as CAR expression) [2] [%] | percent of CD3+ T cells in the PE-positive gate (hK2 CAR) [3] [%]
1 | B1 | ~100 | 46 | 45.1
2 | B2 | ~100 | 50.8 | 59.9
